Experimental data taken from patent US20030232013A1, “Therapeutic and diagnostic targeting of cancers cells with tumor homing peptides” (priority 2002, published 2003).
Read-outs that look alike come from different tables or passages of the source. Bridge positions count the residues as written; N and C are the ends. Peptide text beside a SMILES is read from it. * marks the point of attachment. DOTA = O=C(O)CN1CCN(CC(=O)O)CCN(CC(=O)*)CCN(CC(=O)O)CC1; Ahx = NCCCCCC(=O)O

Test: In vivo biodistribution in MB-231 tumor bearing SCID mice
Settings: female, ICR SCID, mouse, iv, total radioactivity; for tissue uptake at 1 h / dose excreted at 1 h: 1 hour post-injection; for tissue uptake at 24 h / dose excreted at 24 h: 24 hours post-injection
Excerpt: In vivo iodistribution studies. Four- to 5-week old female ICR SCID ([…]) outbred mice were obtained from Taconic (Germantown, N.Y.). The mice were housed five animals per cage in sterile micro isolator cages in a temperature- and humidity-controlled room with a 12-hour light/12-hour dark schedule. The animals were fed autoclaved rodent chow (Ralston Purina Company, St. Louis, Mo.) and water ad libitum. Animals were housed one week prior to inoculation of tumor cells and anesthetized for injections with isoflurane (Baxter Healthcare Corp., Deerfield, Ill.) at a rate of 2.5% with 0.4L oxygen through a non-rebreathing anesthesia vaporizer.
Human breast cancer MB231 and T47D cells were injected on the bilateral subcutaneous (s.c.) flank with ˜5×10^6 cells in a suspension of 100 μl normal sterile saline per injection site. MB231 and T47D cells were allowed to grow in vivo two to three weeks post inoculation developing tumors ranging in sizes from 0.02-1.30 grams. The biodistribution and uptake of ^111In-DOTA-Phe^19-STh or ^111In-DOTA-6-Ahx-Phe^19-STh in tumor bearing SCID mice was studied. The mice (average weight, 25 g) were injected with aliquots (50-100 μl) of the radiolabeled peptide solution (55-75 kBq) in each animal via the tail vein. Tissues, organs and tumors were excised from the animals sacrificed at 1 hr, 4 hrs and 24 hrs p.i. For blocking studies, an access of non-radioactive 6-Ahx-Phe^19-STh (100 μg) was also injected along with the radiolabeled peptide solution. The radioactivity was measured in a NaI counter and the percent-injected dose per organ and the percent-injected dose per gram tissue were calculated (Tables 5 and 6). Animal studies were conducted in accordance with the highest standards of care as outlined in the NIH guide for Care and Use of Laboratory Animals and the Policy and Procedures for Animal Research at the Harry S. Truman Memorial VA Hospital and according to approved protocols.

## CC(C)C[C@@H]1NC(=O)[C@H](CCC(=O)O)NC(=O)[C@@H]2CSSC[C@@H]3NC(=O)[C@H](C)NC(=O)[C@@H]4CCCN4C(=O)[C@H](CC(N)=O)NC(=O)[C@H](CSSC[C@H](NC(=O)[C@H](Cc4ccc(O)cc4)NC(=O)[C@H](CC(N)=O)NC(=O)[C@H](CO)NC(=O)[C@H](CO)NC(=O)[C@H](CC(N)=O)NC(=O)CCCCCNC(=O)CN4CCN(CC(=O)O)CCN(CC(=O)O)CCN(CC(=O)O)CC4)C(=O)N2)NC(=O)[C@H](CSSC[C@@H](C(=O)N[C@@H](Cc2ccccc2)C(=O)O)NC(=O)CNC(=O)[C@H]([C@@H](C)O)NC3=O)NC1=O [^111In-DOTA-6-Ahx-Phe^19-STh, metal not drawn] ({DOTA-Ahx}-NSSNYCCELCCNPACTGCF-OH; disulfide 6-11, 7-15, 10-18)
MB-231 tumor, MB-231 tumor, Blocking (100 μg non-radioactive 6-Ahx-Phe^19-STh co-injected), n = 4, read-out: biodistribution, Tumor
  tissue uptake at 1 h: 0.84 ± 0.3 %ID/g
MB-231 tumor, MB-231 tumor, n = 5, read-out: biodistribution, Tumor
  tissue uptake at 1 h: 0.7 ± 0.16 %ID/g
MB-231 tumor, MB-231 tumor, 4 hours post-injection, n = 5, read-out: biodistribution, Tumor
  tissue uptake at 4 h: 0.24 ± 0.12 %ID/g
MB-231 tumor, MB-231 tumor, n = 4, read-out: biodistribution, Tumor
  tissue uptake at 24 h: 0.13 ± 0.16 %ID/g
blood, Blocking (100 μg non-radioactive 6-Ahx-Phe^19-STh co-injected), n = 4, read-out: biodistribution, Blood
  tissue uptake at 1 h: 0.85 ± 0.31 %ID/g
blood, n = 5, read-out: biodistribution, Blood
  tissue uptake at 1 h: 0.57 ± 0.13 %ID/g
blood, 4 hours post-injection, n = 5, read-out: biodistribution, Blood
  tissue uptake at 4 h: 0.04 ± 0.05 %ID/g
blood, n = 4, read-out: biodistribution, Blood
  tissue uptake at 24 h: 0.01 ± 0.02 %ID/g
faeces, n = 4, read-out: biodistribution, Feces (Avg % ID)
  dose excreted at 24 h: 14.2 ± 17.3%
heart, Blocking (100 μg non-radioactive 6-Ahx-Phe^19-STh co-injected), n = 4, read-out: biodistribution, Heart
  tissue uptake at 1 h: 0.24 ± 0.11 %ID/g
heart, n = 5, read-out: biodistribution, Heart
  tissue uptake at 1 h: 0.14 ± 0.03 %ID/g
heart, 4 hours post-injection, n = 5, read-out: biodistribution, Heart
  tissue uptake at 4 h: 0.06 ± 0.06 %ID/g
heart, n = 4, read-out: biodistribution, Heart
  tissue uptake at 24 h: 0.03 ± 0.03 %ID/g
kidney, Blocking (100 μg non-radioactive 6-Ahx-Phe^19-STh co-injected), n = 4, read-out: biodistribution, Kidney
  tissue uptake at 1 h: 12.8 ± 2.01 %ID/g
kidney, n = 5, read-out: biodistribution, Kidney
  tissue uptake at 1 h: 4.98 ± 0.67 %ID/g
kidney, 4 hours post-injection, n = 5, read-out: biodistribution, Kidney
  tissue uptake at 4 h: 4.96 ± 0.5 %ID/g
kidney, n = 4, read-out: biodistribution, Kidney
  tissue uptake at 24 h: 2.94 ± 0.42 %ID/g
Large intestine, Blocking (100 μg non-radioactive 6-Ahx-Phe^19-STh co-injected), n = 4, read-out: biodistribution, Large Intestine
  tissue uptake at 1 h: 0.17 ± 0.03 %ID/g
Large intestine, n = 5, read-out: biodistribution, Large Intestine
  tissue uptake at 1 h: 0.37 ± 0.05 %ID/g
Large intestine, 4 hours post-injection, n = 5, read-out: biodistribution, Large Intestine
  tissue uptake at 4 h: 0.66 ± 0.52 %ID/g
Large intestine, n = 4, read-out: biodistribution, Large Intestine
  tissue uptake at 24 h: 1.5 ± 2.59 %ID/g
liver, Blocking (100 μg non-radioactive 6-Ahx-Phe^19-STh co-injected), n = 4, read-out: biodistribution, Liver
  tissue uptake at 1 h: 0.33 ± 0.06 %ID/g
liver, n = 5, read-out: biodistribution, Liver
  tissue uptake at 1 h: 0.2 ± 0.03 %ID/g
liver, 4 hours post-injection, n = 5, read-out: biodistribution, Liver
  tissue uptake at 4 h: 0.09 ± 0.02 %ID/g
liver, n = 4, read-out: biodistribution, Liver
  tissue uptake at 24 h: 0.05 ± 0.02 %ID/g
lung, Blocking (100 μg non-radioactive 6-Ahx-Phe^19-STh co-injected), n = 4, read-out: biodistribution, Lung
  tissue uptake at 1 h: 0.49 ± 0.12 %ID/g
lung, n = 5, read-out: biodistribution, Lung
  tissue uptake at 1 h: 0.31 ± 0.04 %ID/g
lung, 4 hours post-injection, n = 5, read-out: biodistribution, Lung
  tissue uptake at 4 h: 0.08 ± 0.05 %ID/g
lung, n = 4, read-out: biodistribution, Lung
  tissue uptake at 24 h: 0.01 ± 0.02 %ID/g
muscle, Blocking (100 μg non-radioactive 6-Ahx-Phe^19-STh co-injected), n = 4, read-out: biodistribution, Muscle
  tissue uptake at 1 h: 0.1 ± 0.08 %ID/g
muscle, n = 5, read-out: biodistribution, Muscle
  tissue uptake at 1 h: 0.1 ± 0.08 %ID/g
muscle, 4 hours post-injection, n = 5, read-out: biodistribution, Muscle
  tissue uptake at 4 h: 0.04 ± 0.05 %ID/g
muscle, n = 4, read-out: biodistribution, Muscle
  tissue uptake at 24 h: 0.02 ± 0.04 %ID/g
pancreas, Blocking (100 μg non-radioactive 6-Ahx-Phe^19-STh co-injected), n = 4, read-out: biodistribution, Pancreas
  tissue uptake at 1 h: 0.21 ± 0.04 %ID/g
pancreas, n = 5, read-out: biodistribution, Pancreas
  tissue uptake at 1 h: 0.13 ± 0.03 %ID/g
pancreas, 4 hours post-injection, n = 5, read-out: biodistribution, Pancreas
  tissue uptake at 4 h: 0.05 ± 0.02 %ID/g
pancreas, n = 4, read-out: biodistribution, Pancreas
  tissue uptake at 24 h: 0.03 ± 0.02 %ID/g
Small intestine, Blocking (100 μg non-radioactive 6-Ahx-Phe^19-STh co-injected), n = 4, read-out: biodistribution, Small Intestine
  tissue uptake at 1 h: 0.85 ± 1.19 %ID/g
Small intestine, n = 5, read-out: biodistribution, Small Intestine
  tissue uptake at 1 h: 0.99 ± 0.18 %ID/g
Small intestine, 4 hours post-injection, n = 5, read-out: biodistribution, Small Intestine
  tissue uptake at 4 h: 0.28 ± 0.07 %ID/g
Small intestine, n = 4, read-out: biodistribution, Small Intestine
  tissue uptake at 24 h: 0.21 ± 0.13 %ID/g
spleen, Blocking (100 μg non-radioactive 6-Ahx-Phe^19-STh co-injected), n = 4, read-out: biodistribution, Spleen
  tissue uptake at 1 h: 0.12 ± 0.14 %ID/g
spleen, n = 5, read-out: biodistribution, Spleen
  tissue uptake at 1 h: 0.15 ± 0.1 %ID/g
spleen, 4 hours post-injection, n = 5, read-out: biodistribution, Spleen
  tissue uptake at 4 h: 0.05 ± 0.05 %ID/g
spleen, n = 4, read-out: biodistribution, Spleen
  tissue uptake at 24 h: 0.02 ± 0.04 %ID/g
stomach, Blocking (100 μg non-radioactive 6-Ahx-Phe^19-STh co-injected), n = 4, read-out: biodistribution, Stomach
  tissue uptake at 1 h: 2.18 ± 3.69 %ID/g
stomach, n = 5, read-out: biodistribution, Stomach
  tissue uptake at 1 h: 0.31 ± 0.33 %ID/g
stomach, 4 hours post-injection, n = 5, read-out: biodistribution, Stomach
  tissue uptake at 4 h: 0.03 ± 0.01 %ID/g
stomach, n = 4, read-out: biodistribution, Stomach
  tissue uptake at 24 h: 0.09 ± 0.09 %ID/g
urine, Blocking (100 μg non-radioactive 6-Ahx-Phe^19-STh co-injected), n = 4, read-out: biodistribution, Urine (Avg % ID)
  dose excreted at 1 h: 87.4 ± 4.5%
urine, n = 5, read-out: biodistribution, Urine (Avg % ID)
  dose excreted at 1 h: 89.4 ± 2.9%
urine, 4 hours post-injection, n = 5, read-out: biodistribution, Urine (Avg % ID)
  dose excreted at 4 h: 95.8 ± 1.4%
urine, n = 4, read-out: biodistribution, Urine (Avg % ID)
  dose excreted at 24 h: 82.5 ± 20.3%
